The values that follow come from patent US20090280138A1 (OXFORD BIOMEDICA UK, published 2009).

The chains are these.
B1: 5T4 9-mer peptide 40 NRNLTEVPT (peptide)
peptide: NRNLTEVPT
B2: 5T4 9-mer peptide 42 TEVPTDLPA (peptide)
peptide: TEVPTDLPA
B3: 5T4 9-mer peptide 38 VKCVNRNLT (peptide)
peptide: VKCVNRNLT
B4: 5T4 9-mer peptide 34 ECSEAARTV (peptide)
peptide: ECSEAARTV
B5: 5T4 9-mer peptide 19 SASSFSSSA (peptide)
peptide: SASSFSSSA
B6: 5T4 9-mer peptide 39 CVNRNLTEV (peptide)
peptide: CVNRNLTEV
B7: 5T4 9-mer peptide 31 QCPALCECS (peptide)
peptide: QCPALCECS
B8: 5T4 9-mer peptide 32 PALCECSEA (peptide)
peptide: PALCECSEA
B9: 5T4 9-mer peptide 51 NQLAVLPAG (peptide)
peptide: NQLAVLPAG
B10: 5T4 9-mer peptide 44 TDLPAYVRN (peptide)
peptide: TDLPAYVRN
B11: 5T4 9-mer peptide 23 APFLASAVS (peptide)
peptide: APFLASAVS
B12: 5T4 9-mer peptide 20 SSFSSSAPF (peptide)
peptide: SSFSSSAPF
B13: 5T4 9-mer peptide 26 AVSAQPPLP (peptide)
peptide: AVSAQPPLP
B14: 5T4 9-mer peptide 18 TSSASSFSS (peptide)
peptide: TSSASSFSS
B15: 5T4 9-mer peptide 52 LAVLPAGAF (peptide)
peptide: LAVLPAGAF
B16: 5T4 9-mer peptide 22 SSAPFLASA (peptide)
peptide: SSAPFLASA
B17: 5T4 9-mer peptide 24 FLASAVSAQ (peptide)
peptide: FLASAVSAQ
B18: 5T4 9-mer peptide 36 AARTVKCVN (peptide)
peptide: AARTVKCVN
B19: 5T4 9-mer peptide 29 PLPDQCPAL (peptide)
peptide: PLPDQCPAL
B20: 5T4 9-mer peptide 46 AYVRNLFLT (peptide)
peptide: AYVRNLFLT
B21: 5T4 9-mer peptide 50 TGNQLAVLP (peptide)
peptide: TGNQLAVLP
B22: 5T4 9-mer peptide 27 SAQPPLPDQ (peptide)
peptide: SAQPPLPDQ
B23: 5T4 9-mer peptide 17 SPTSSASSF (peptide)
peptide: SPTSSASSF
B24: 5T4 9-mer peptide 49 FLTGNQLAV (peptide)
peptide: FLTGNQLAV
B25: 5T4 9-mer peptide 33 LCECSEAAR (peptide)
peptide: LCECSEAAR
B26: 5T4 9-mer peptide 21 FSSSAPFLA (peptide)
peptide: FSSSAPFLA
B27: 5T4 9-mer peptide 48 NLFLTGNQL (peptide)
peptide: NLFLTGNQL
B28: 5T4 9-mer peptide 43 VPTDLPAYV (peptide)
peptide: VPTDLPAYV
B29: 5T4 9-mer peptide 25 ASAVSAQPP (peptide)
peptide: ASAVSAQPP
B30: 5T4 9-mer peptide 28 QPPLPDQCP (peptide)
peptide: QPPLPDQCP
B31: 5T4 9-mer peptide 45 LPAYVRNLF (peptide)
peptide: LPAYVRNLF
B32: 5T4 9-mer peptide 30 PDQCPALCE (peptide)
peptide: PDQCPALCE
B33: 5T4 9-mer peptide 35 SEAARTVKC (peptide)
peptide: SEAARTVKC
B34: 5T4 9-mer peptide 37 RTVKCVNRN (peptide)
peptide: RTVKCVNRN
B35: 5T4 9-mer peptide 41 NLTEVPTDL (peptide)
peptide: NLTEVPTDL
B36: 5T4 9-mer peptide 47 VRNLFLTGN (peptide)
peptide: VRNLFLTGN

One test deals with T1, MHC class I molecule A*0101 (biotin (bound to streptavidin-coated plate)).
T1 construct: also called A1; HLA-A1
Nature of the test: iTopia iScore. As to the method: (§1) The 9 mers were tested for Peptide Binding, Off Rate and Affinity using iTopia Epitope Discovery System in accordance with the manufacturer's instructions. Briefly, 96 well microtitre plates coated with MHC molecules representing different MHC alleles are used to identify candidate peptides. […] Determinations are performed in duplicate using an ELISA plate reader and included allele specific positive controls.
(§2) Finally, multiparametric analysis is performed on the results from these assays and an iScore is generated. The iScore represents a measure of the overall quality of peptide-MHC binding, enabling candidate peptides to be ranked in order of binding quality and allowing rational prioritisation of peptides for functional cellular follow-up studies.
Turning to B1, the iScore amounted to 0.
B2: the iScore was found to be 0.
Still for that read-out and setting: next, B3: 0; B4: 0.
On the same count and under the same terms, the result for B5 reads 0; that for B6, 0.
On the same count and under the same terms, the result for B7 reads 0.
Molecule B8 gave an iScore of 0.
For B9, the iScore was 0.
In turn, B10 showed an iScore of 0.
For B11, the iScore is 0.
Molecule B12 came in with an iScore of 0.
The molecule B13 came in with an iScore of 0.
The same measure, in the same setting: the result for B14 reads 0; that for B15, 0.
In the case of B16, the iScore is 0.
B17 returned an iScore of 0.
On the same count and under the same terms, next, B18: 0; B19: 0.
Still for that read-out and setting: the result for B20 reads 0; that for B21, 0; that for B22, 0.
The same measure, in the same setting: the result for B23 reads 0; that for B24, 0; that for B25, 0.
B26 gave an iScore of 0.023.
The molecule B27 gave an iScore of 0.
Still for that read-out and setting: next, B28: 0.098; B29: 0; B30: 0.
Same read-out and setting: next, B31: 0; B32: 0; B33: 0.
On the same count and under the same terms, the result for B34 reads 0; that for B35, 0; that for B36, 0.

A further test deals with T2, MHC class I molecule A*0201 (biotin (bound to streptavidin-coated plate)).
T2 construct: also called A2; HLA-A2
Nature of the test: iTopia iScore. How it is done: as §1, §2
Molecule B1 showed an iScore of 0.
In the case of B2, the iScore came to 0.
The same measure, in the same setting: next, B3: 0; B4: 0; B5: 0.045.
Regarding B6, the iScore was found to be 0.05.
Still for that read-out and setting: next, B7: 0; B8: 0.082.
The same measure, in the same setting: next, B9: 0.22; B10: 0.
As to B11, the iScore came to 0.041.
In turn, B12 registered an iScore of 0.037.
Still for that read-out and setting: next, B13: 0.062; B14: 0.037.
As to B15, the iScore is 0.074.
Turning to B16, the iScore was determined as 0.389.
Still for that read-out and setting: next, B17: 0.134; B18: 0.115.
In the case of B19, the iScore amounted to 0.88.
Still for that read-out and setting: next, B20: 0.18; B21: 0.044; B22: 0.
The same measure, in the same setting: the result for B23 reads 0; that for B24, 0.791.
The same measure, in the same setting: the result for B25 reads 0; that for B26, 0.116; that for B27, 0.107.
For the molecule B28, the iScore was 0.059.
B29 gave an iScore of 0.
For the molecule B30, the iScore amounted to 0.
In the case of B31, the iScore came out at 0.
B32 came in with an iScore of 0.
The same measure, in the same setting: the result for B33 reads 0.
Take B34: the iScore was found to be 0.
Molecule B35 yielded an iScore of 0.253.
The molecule B36 returned an iScore of 0.

A further test addresses T3, MHC class I molecule A*0301 (biotin (bound to streptavidin-coated plate)).
T3 construct: also called A3; HLA-A3
Nature of the test: iTopia iScore. As to the method: as §1, §2
Consider B1, for which the iScore is 0.
B2: the iScore worked out at 0.
In turn, B3 returned an iScore of 0.
Turning to B4, the iScore was found to be 0.
On the same count and under the same terms, the result for B5 reads 0.
The same measure, in the same setting: next, B6: 0; B7: 0.
The molecule B8 yielded an iScore of 0.
Same read-out and setting: next, B9: 0; B10: 0.
On to B11, for which the iScore is 0.
The same measure, in the same setting: the result for B12 reads 0.
The same measure, in the same setting: next, B13: 0.
As to B14, the iScore was found to be 0.
B15 had an iScore of 0.
As to B16, the iScore stood at 0.
B17 came in with an iScore of 0.
B18 displayed an iScore of 0.
In turn, B19 showed an iScore of 0.
B20 showed an iScore of 0.
In the case of B21, the iScore is 0.
The molecule B22 registered an iScore of 0.
On the same count and under the same terms, next, B23: 0.
Still for that read-out and setting: next, B24: 0; B25: 0; B26: 0.
B27 yielded an iScore of 0.
In turn, B28 displayed an iScore of 0.
The same measure, in the same setting: the result for B29 reads 0; that for B30, 0.
For the molecule B31, the iScore came out at 0.
In turn, B32 registered an iScore of 0.
Still for that read-out and setting: next, B33: 0.
In the case of B34, the iScore is 0.
B35 returned an iScore of 0.
The same measure, in the same setting: next, B36: 0.

The target in a further test is T4, MHC class I molecule B*0702 (biotin (bound to streptavidin-coated plate)).
T4 construct: also called B7; HLA-B7
Nature of the test: iTopia iScore. How it is done: as §1, §2
The molecule B1 displayed an iScore of 0.
On the same count and under the same terms, next, B2: 0.
The molecule B3 registered an iScore of 0.
The same measure, in the same setting: the result for B4 reads 0; that for B5, 0; that for B6, 0.093.
As to B7, the iScore is 0.
B8 gave an iScore of 0.
On the same count and under the same terms, the result for B9 reads 0; that for B10, 0; that for B11, 0.176.
The same measure, in the same setting: next, B12: 0; B13: 0.
Still for that read-out and setting: the result for B14 reads 0.
B15 showed an iScore of 0.049.
On the same count and under the same terms, the result for B16 reads 0; that for B17, 0; that for B18, 0.059.
Same read-out and setting: the result for B19 reads 0; that for B20, 0.
Turning to B21, the iScore came out at 0.
In the case of B22, the iScore was found to be 0.
Same read-out and setting: the result for B23 reads 0.335; that for B24, 0; that for B25, 0.
Regarding B26, the iScore is 0.
The same measure, in the same setting: the result for B27 reads 0; that for B28, 0.
With B29, the iScore was 0.
B30: the iScore was determined as 0.
Still for that read-out and setting: the result for B31 reads 0.389.
On the same count and under the same terms, the result for B32 reads 0; that for B33, 0.
The same measure, in the same setting: the result for B34 reads 0.
Molecule B35 had an iScore of 0.
B36 yielded an iScore of 0.
